The values that follow come from US20170253660A1.

Assay [1] has as its target human CD16 Fc receptor on NK92-MI cells (human) (UniProt P08637). Nature of the assay: cell-based or functional assay. Conditions: for LAN1-CD16 Potency: scale: relative to m3F8.
Assay [2] has as its target human CD32 Fc receptor on NK92-MI cells (human). Nature of the assay: cell-based or functional assay. To be noted: for LAN1-CD32 Potency: scale: relative to m3F8.

Sequence of human CD16 Fc receptor on NK92-MI cells (human) (P08637 17-254): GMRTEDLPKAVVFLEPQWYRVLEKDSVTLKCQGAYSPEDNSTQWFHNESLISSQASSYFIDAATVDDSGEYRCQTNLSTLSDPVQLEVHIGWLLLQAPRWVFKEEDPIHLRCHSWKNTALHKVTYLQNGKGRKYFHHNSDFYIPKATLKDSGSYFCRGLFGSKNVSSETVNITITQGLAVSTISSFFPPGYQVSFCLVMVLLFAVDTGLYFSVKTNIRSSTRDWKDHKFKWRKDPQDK

With ch14.18 (antibody), in assay [1], the Antibody potency using NK92-CD16 ADCC, LAN1 (relative potency (m3F8 = 1)) is 4; the Antibody potency using NK92-CD16 ADCC, SHEP1 (relative potency (m3F8 = 1)) was 3; the Antibody potency using NK92-CD16 ADCC, SKNLP (relative potency (m3F8 = 1)) was 8; the M14-CD16 Potency (relative to m3F8) was 9. In assay [2], this substance returned an M14-CD32 Potency (relative to m3F8) of 21 and an LAN1-CD32 Potency of 8.
In assay [1], heat modified m3F8 (antibody) showed an Antibody potency using NK92-CD16 ADCC, LAN1 (relative potency (m3F8 = 1)) of 0.2.
In assay [1], 14.G2a (antibody) came in with an Antibody potency using NK92-CD16 ADCC, BE(1)N (relative potency (m3F8 = 1)) of 1; an Antibody potency using NK92-CD16 ADCC, LAN1 (relative potency (m3F8 = 1)) of 0.4; an Antibody potency using NK92-CD16 ADCC, NMB7 (relative potency (m3F8 = 1)) of 1; an Antibody potency using NK92-CD16 ADCC, SHEP1 (relative potency (m3F8 = 1)) of 1. Also, in assay [1], the Antibody potency using NK92-CD16 ADCC, SKNLP (relative potency (m3F8 = 1)) worked out at 1; the M14-CD16 Potency (relative to m3F8) was 1; the LAN1-CD16 Potency was 4. In assay [2], this substance came in with an M14-CD32 Potency (relative to m3F8) of 6 and an LAN1-CD32 Potency of 2.
In assay [1], murine 3F8 (antibody) had an Antibody potency using NK92-CD16 ADCC, BE(1)N (relative potency (m3F8 = 1)) of 1; an Antibody potency using NK92-CD16 ADCC, LAN1 (relative potency (m3F8 = 1)) of 1; an Antibody potency using NK92-CD16 ADCC, NMB7 (relative potency (m3F8 = 1)) of 1; an Antibody potency using NK92-CD16 ADCC, SHEP1 (relative potency (m3F8 = 1)) of 1. Further, in assay [1], the Antibody potency using NK92-CD16 ADCC, SKNLP (relative potency (m3F8 = 1)) was determined as 1; the M14-CD16 Potency (relative to m3F8) was 1; the LAN1-CD16 Potency was determined as 1. In assay [2], this substance gave an M14-CD32 Potency (relative to m3F8) of 1 and an LAN1-CD32 Potency of 1.
